Experiments:
[1] = biological target: Labeled bovine β-cardiac heavy meromyosin (HMM) carrying EDANS- and dabcyl-labeled regulatory light chain (bovine) (UniProt P85100); assay: FRET or BRET; time-resolved FRET as in a2 with mavacamten (dose-response) and 2 mM magnesium ATP, incubated 10 min; 5 μM labeled HMM; head-head interaction within the molecule
[2] = biological target: Labeled bovine β-cardiac heavy meromyosin (HMM) carrying EDANS- and dabcyl-labeled regulatory light chain (bovine) (UniProt P85100); assay: FRET or BRET + cross-linking; time-resolved FRET as in a2 after cross-linking: 5 μM HMM in 10 mM MOPS, 30 mM KCl, 2 mM MgATP, 1 mM DTT, pH 7.5, 0.1% glutaraldehyde for 1 min, quenched with 100 mM Tris pH 7.5; head-head interaction within the molecule
[3] = biological target: Labeled bovine β-cardiac heavy meromyosin (HMM) carrying EDANS- and dabcyl-labeled regulatory light chain (bovine) (UniProt P85100); assay: FRET or BRET; time-resolved FRET between EDANS- and dabcyl-labeled RLC (1:3) on the two heads of one HMM dimer; head-head interaction within the molecule (interacting-heads motif), not between HMM molecules; in solution, no cross-linker

Labeled bovine β-cardiac heavy meromyosin (HMM) carrying EDANS- and dabcyl-labeled regulatory light chain (from UniProt P85100 1-199; Q3SZE5 1-166) (complex)
increase in the population participating in FRET with mavacamten (head-head interaction within the dimer) [1]: 4% | fraction participating in FRET after glutaraldehyde (head-head interaction within the dimer) [2]: 74% | percent of molecules in the interacting-heads motif (head-head interaction within the dimer) [3]: 43%
